Source: patent publication US20240010742A1 (RESEARCH DEVELOPMENT FOUNDATION, published 2024)

Columns and labels:
FcγRIIaR131 [1] = biological target: T1, FcγRIIaR131 (human, UniProt P12318 36-218, limits assumed, biotinylated (BLI, beads)); assay: flow cytometry: hexameric Fc on FcγR-coated beads; mean fluorescence intensity
T1 construct: also called FcgRIIaR131; 2aR
T1 sequence (looked up): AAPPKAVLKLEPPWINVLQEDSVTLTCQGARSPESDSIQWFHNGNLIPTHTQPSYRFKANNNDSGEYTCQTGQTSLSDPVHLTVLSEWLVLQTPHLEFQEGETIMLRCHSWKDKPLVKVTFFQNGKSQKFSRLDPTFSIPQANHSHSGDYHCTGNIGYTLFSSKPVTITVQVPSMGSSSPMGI

FcgRIIIbNA2 [2] = biological target: T2, FcgRIIIbNA2 (human, UniProt O75015 17-200, limits assumed); assay: as above
T2 construct: also called FcγRIIIb
T2 sequence (O75015 17-200 limits assumed): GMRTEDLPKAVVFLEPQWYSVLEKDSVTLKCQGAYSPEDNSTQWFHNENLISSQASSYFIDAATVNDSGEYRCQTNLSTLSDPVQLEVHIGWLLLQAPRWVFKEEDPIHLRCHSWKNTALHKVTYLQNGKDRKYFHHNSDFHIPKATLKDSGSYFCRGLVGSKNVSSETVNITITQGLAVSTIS

FcγRIIIaV158 [3] = biological target: T3, FcγRIIIaV158 (human, UniProt P08637 17-208, biotinylated (BLI, beads)); assay: as above
T3 construct: also called FcgRIIIaV158; 3aV
T3 sequence (P08637 17-208 F176V limits assumed): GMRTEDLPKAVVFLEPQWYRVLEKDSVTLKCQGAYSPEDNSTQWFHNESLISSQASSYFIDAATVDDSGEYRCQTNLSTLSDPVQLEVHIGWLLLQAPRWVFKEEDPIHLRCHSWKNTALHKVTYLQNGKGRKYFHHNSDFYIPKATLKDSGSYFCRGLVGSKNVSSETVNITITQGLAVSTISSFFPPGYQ

FcγRIIaH131 [4] = biological target: T4, FcγRIIaH131 (human, UniProt P12318 36-218, limits assumed, biotinylated (BLI, beads)); assay: as above
T4 construct: also called FcgRIIaH131
T4 sequence (looked up): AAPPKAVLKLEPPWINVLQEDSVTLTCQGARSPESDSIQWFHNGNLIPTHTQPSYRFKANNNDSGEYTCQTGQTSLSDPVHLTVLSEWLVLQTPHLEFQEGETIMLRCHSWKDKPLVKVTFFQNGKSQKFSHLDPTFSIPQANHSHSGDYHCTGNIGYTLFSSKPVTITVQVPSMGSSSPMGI

FcγRI = biological target: T5, FcγRI (human, UniProt P12314 16-288, limits assumed, biotinylated (BLI, beads)); assay: flow cytometry: hexameric Fc on FcγR-coated beads; y axis = mean fluorescence intensity
T5 construct: Recombinant receptor; also called FcgRI
T5 sequence (P12314 16-288 limits assumed): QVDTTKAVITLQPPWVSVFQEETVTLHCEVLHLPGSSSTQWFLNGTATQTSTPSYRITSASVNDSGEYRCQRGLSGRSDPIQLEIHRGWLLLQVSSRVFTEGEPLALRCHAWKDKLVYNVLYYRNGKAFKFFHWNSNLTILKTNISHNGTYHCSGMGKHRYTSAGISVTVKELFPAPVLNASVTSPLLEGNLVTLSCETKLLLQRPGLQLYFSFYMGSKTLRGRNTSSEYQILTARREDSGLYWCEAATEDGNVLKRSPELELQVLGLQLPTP

FcγRIIb = biological target: T6, FcγRIIb (human, UniProt P31994 46-217, limits assumed, biotinylated (BLI, beads)); assay: as above
T6 construct: Recombinant receptor on biosensors, SPR or beads; also called FcgRIIb; 2b
T6 sequence (looked up): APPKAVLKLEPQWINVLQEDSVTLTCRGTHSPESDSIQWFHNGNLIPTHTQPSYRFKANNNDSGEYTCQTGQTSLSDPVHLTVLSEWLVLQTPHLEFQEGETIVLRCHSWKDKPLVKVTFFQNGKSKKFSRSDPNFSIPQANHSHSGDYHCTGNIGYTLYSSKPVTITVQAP

[5] = biological target: T7, FcγRIIb on cells (Raji cells; THP-1 cells) (human, UniProt P31994 43-310); assay: flow cytometry: hexameric Fc on Raji cells (only FcγR2b among Fc receptors), 40 to 0.039 ug/ml; upper panel fluorescence intensity (axis without title), lower panel percent positive; last bar of each group = Ramos cells at 40 ug/ml
T7 construct: whole, on cells; also called FcγR2b; FcgR2b
T7 sequence (looked up): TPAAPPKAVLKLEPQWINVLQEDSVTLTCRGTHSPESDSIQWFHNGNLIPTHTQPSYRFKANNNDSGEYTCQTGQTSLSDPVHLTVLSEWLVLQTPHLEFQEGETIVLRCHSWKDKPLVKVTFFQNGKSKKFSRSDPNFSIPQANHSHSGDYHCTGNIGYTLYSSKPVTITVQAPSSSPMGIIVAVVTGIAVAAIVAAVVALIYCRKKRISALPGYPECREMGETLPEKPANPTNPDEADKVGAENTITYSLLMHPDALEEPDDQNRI
Method: Error bars are standard error of the mean of triplicate samples. Statistical analysis was performed by one way ANOVA with Tukey s multiple comparisons test (***P 0.001, ****P 0.0001). […] The cell binding of hexameric Fc was tested with Raji cell which expresses only FcγR2b among Fc receptors (FIG. 13).

FcγRIIaR131 [6] = biological target: T1, FcγRIIaR131; assay: flow cytometry: hexameric Fc on FcγR-coated beads; y axis = mean fluorescence intensity
FcgRIIIbNA2 [7] = biological target: T2, FcgRIIIbNA2; assay: flow cytometry: hexameric Fc ('Hex 2b18KQS-1') on FcγR-coated beads; mean fluorescence intensity
FcγRIIIaV158 [8] = biological target: T3, FcγRIIIaV158; assay: as above
FcγRIIaH131 [9] = biological target: T4, FcγRIIaH131; assay: as above

| Binder | binding result (FcγRIIaR131 [1]) | binding result (FcgRIIIbNA2 [2]) | binding result (FcγRIIIaV158 [3]) | binding result (FcγRIIaH131 [4]) | binding result (FcγRI) | binding result (FcγRIIb) | binding result [5] | binding result (FcγRIIaR131 [6]) | binding result (FcgRIIIbNA2 [7]) | binding result (FcγRIIIaV158 [8]) | binding result (FcγRIIaH131 [9]) |
| --- | --- | --- | --- | --- | --- | --- | --- | --- | --- | --- | --- |
| Hex 2b18KQS-ST (glycosylated version of Hex 2b18KQS) (Fc fusion, Ser298/Thr299 restored (glycosylated); forms a hexamer of Fc; also called glycosylated Hex 2b18KQS-ST Fc; hexameric 2b18KQS-ST Fc) EPKSCDKTHTCPPCPAPVDFRDPLVFLFPPKPKDTLMISRTPEVTCVVVDVSPEDPEVKFNWYVDGVEVHNAKTKPQEEQYNSTYRVVSVLTVCHQDWLNGKEYKCKVSNKLAPHPIIKTISKAKGQPREPQVYTLPPSRDELTKNQVSLTCLVKGFYPSDIAVEWESNGQPENNYKTTPPVLDSDGSFFLYSKLTVDKSRWQQGNVFSCSVMHEALHNHYTQKSLSLSPGKPTLYNVSLVMSDTAGTCY | no binding | no binding | no binding | no binding | binds | binds | binds | – | – | – | – |
| Hex 2b18K-ST (Fc fusion, also called Hex2b218K-ST; glycosylated hexameric construct of Fc variant 2b18K) Fc-tailpiece fusion chain: EPKSCDKTHTCPPCPAPVDFRDPLVFLFPPKPKDTLMISRTPEVTCVVVDVDPEDPEVKFNWYVDGVEVHNAKTKPREEQYNSTYRVVSVLTVCHQDWLNGKEYKCKVSNKLAPHPIIKTISKAKGQPREPQVYTLPPSRDELTKNQVSLTCLVKGFYPSDIAVEWESNGQPENNYKTTPPVLDSDGSFFLYSKLTVDKSRWQQGNVFSCSVMHEALHNHYTQKSLSLSPGKPTLYNVSLVMSDTAGNCY | – | no binding | no binding | no binding | binds | binds | – | binds | – | – | – |
| Hex 2b18KQS (aglycosylated hexameric Fc) (Fc fusion, forms a hexamer of Fc; also called Hex 2b18KQS Fc; Hex-2bKQS) EPKSCDKTHTCPPCPAPVDFRDPLVFLFPPKPKDTLMISRTPEVTCVVVDVSPEDPEVKFNWYVDGVEVHNAKTKPQEEQYNGAYRVVSVLTVCHQDWLNGKEYKCKVSNKLAPHPIIKTISKAKGQPREPQVYTLPPSRDELTKNQVSLTCLVKGFYPSDIAVEWESNGQPENNYKTTPPVLDSDGSFFLYSKLTVDKSRWQQGNVFSCSVMHEALHNHYTQKSLSLSPGKPTLYNVSLVMSDTAGTCY | – | – | – | – | – | binds | binds | binds | no binding | no binding | no binding |
